How the values were obtained:
[1] = target: T1, Lin28 (Lin28A) (Mus musculus (murine), UniProt Q8K3Y3 1-209); test: EMSA; Hill n = 1.3 ± 0.1; EMSA: 50 mM Tris pH 7.6, 50 mM NaCl, 10% glycerol, 0.05% NP-40 alternative, 2 mM DTT, 4°C; 2-AP: 50 mM Tris pH 7.6, 50 mM NaCl, 10% glycerol, 4°C; FRET: EMSA buffer, 30°C; conditions: protein: recombinant; label: 5'-32P; hairpin
T1 sequence: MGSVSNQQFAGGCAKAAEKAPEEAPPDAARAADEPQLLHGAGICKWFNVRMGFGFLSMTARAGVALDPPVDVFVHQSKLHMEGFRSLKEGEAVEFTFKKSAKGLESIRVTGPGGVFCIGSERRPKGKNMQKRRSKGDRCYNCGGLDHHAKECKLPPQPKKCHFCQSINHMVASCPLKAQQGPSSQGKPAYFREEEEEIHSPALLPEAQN

[2] = target: T1, Lin28 (Lin28A); test: EMSA; EMSA: 50 mM Tris pH 7.6, 50 mM NaCl, 10% glycerol, 0.05% NP-40 alternative, 2 mM DTT, 4°C; 2-AP: 50 mM Tris pH 7.6, 50 mM NaCl, 10% glycerol, 4°C; FRET: EMSA buffer, 30°C; conditions: protein: recombinant; label: 5'-32P
[3] = target: T1, Lin28 (Lin28A); test: EMSA (stoichiometric); 0.5 µM RNA; EMSA: 50 mM Tris pH 7.6, 50 mM NaCl, 10% glycerol, 0.05% NP-40 alternative, 2 mM DTT, 4°C; 2-AP: 50 mM Tris pH 7.6, 50 mM NaCl, 10% glycerol, 4°C; FRET: EMSA buffer, 30°C; conditions: protein: recombinant, label: 5'-32P
[4] = target: T2, Lin28 119-180 (Mus musculus (murine), UniProt Q8K3Y3 119-180); test: as above; conditions: protein: recombinant, label: 5'-32P
T2 sequence: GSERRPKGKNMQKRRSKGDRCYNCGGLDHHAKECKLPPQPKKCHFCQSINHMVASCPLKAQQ

[5] = target: T3, Lin28 C139A/C161A (Mus musculus (murine), UniProt Q8K3Y3 1-209, C139A;C161A); test: FRET strand displacement; 25 nM RNA, 30°C; ΔFRETmax 0.77; EMSA: 50 mM Tris pH 7.6, 50 mM NaCl, 10% glycerol, 0.05% NP-40 alternative, 2 mM DTT, 4°C; 2-AP: 50 mM Tris pH 7.6, 50 mM NaCl, 10% glycerol, 4°C; FRET: EMSA buffer, 30°C; conditions: protein: recombinant; label: 5'-Cy5 (S1); 5'-Cy3 (S3); blunt, 5-nt G-rich bulge in strand 1
T3 sequence: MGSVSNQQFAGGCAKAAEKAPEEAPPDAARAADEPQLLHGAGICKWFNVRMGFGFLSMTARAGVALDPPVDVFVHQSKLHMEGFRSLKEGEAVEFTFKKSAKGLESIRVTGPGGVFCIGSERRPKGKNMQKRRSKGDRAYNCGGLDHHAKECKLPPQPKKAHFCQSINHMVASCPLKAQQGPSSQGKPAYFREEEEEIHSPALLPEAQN

[6] = target: T1, Lin28 (Lin28A); test: FRET strand displacement; 25 nM RNA, 30°C; ΔFRETmax 0.84; EMSA: 50 mM Tris pH 7.6, 50 mM NaCl, 10% glycerol, 0.05% NP-40 alternative, 2 mM DTT, 4°C; 2-AP: 50 mM Tris pH 7.6, 50 mM NaCl, 10% glycerol, 4°C; FRET: EMSA buffer, 30°C; conditions: protein: recombinant; label: 5'-Cy5 (S1); 5'-Cy3 (S3); blunt, 5-nt G-rich bulge in strand 1
[7] = target: T2, Lin28 119-180; test: FRET strand displacement; 25 nM RNA, 30°C; ΔFRETmax 0.24, binding without displacement; EMSA: 50 mM Tris pH 7.6, 50 mM NaCl, 10% glycerol, 0.05% NP-40 alternative, 2 mM DTT, 4°C; 2-AP: 50 mM Tris pH 7.6, 50 mM NaCl, 10% glycerol, 4°C; FRET: EMSA buffer, 30°C; conditions: protein: recombinant; label: 5'-Cy5 (S1); 5'-Cy3 (S3); blunt, 5-nt G-rich bulge in strand 1
[8] = target: T1, Lin28 (Lin28A); test: EMSA; Hill n = 2 ± 1; EMSA: 50 mM Tris pH 7.6, 50 mM NaCl, 10% glycerol, 0.05% NP-40 alternative, 2 mM DTT, 4°C; 2-AP: 50 mM Tris pH 7.6, 50 mM NaCl, 10% glycerol, 4°C; FRET: EMSA buffer, 30°C; conditions: protein: recombinant; label: 5'-32P; hairpin
[9] = target: T1, Lin28 (Lin28A); test: EMSA; 1:1 complex; EMSA: 50 mM Tris pH 7.6, 50 mM NaCl, 10% glycerol, 0.05% NP-40 alternative, 2 mM DTT, 4°C; 2-AP: 50 mM Tris pH 7.6, 50 mM NaCl, 10% glycerol, 4°C; FRET: EMSA buffer, 30°C; conditions: protein: recombinant; label: 5'-32P; hairpin
[10] = target: T2, Lin28 119-180; test: EMSA; EMSA: 50 mM Tris pH 7.6, 50 mM NaCl, 10% glycerol, 0.05% NP-40 alternative, 2 mM DTT, 4°C; 2-AP: 50 mM Tris pH 7.6, 50 mM NaCl, 10% glycerol, 4°C; FRET: EMSA buffer, 30°C; conditions: protein: recombinant; label: 5'-32P
[11] = target: T1, Lin28 (Lin28A); test: 2-AP fluorescence; 500 nM RNA (stoichiometric); EMSA: 50 mM Tris pH 7.6, 50 mM NaCl, 10% glycerol, 0.05% NP-40 alternative, 2 mM DTT, 4°C; 2-AP: 50 mM Tris pH 7.6, 50 mM NaCl, 10% glycerol, 4°C; FRET: EMSA buffer, 30°C; conditions: protein: recombinant; label: 2-AP; hairpin
[12] = target: T4, Lin28 C139A/C161A;Lin28 119-180 (Mus musculus (murine);Mus musculus …, UniProt Q8K3Y3;Q8K3Y3 1-209;119-180, C139A;C161A|); test: EMSA (stoichiometric); 1:1:1 and 1:1:2 RNA:P3:P2 complexes; EMSA: 50 mM Tris pH 7.6, 50 mM NaCl, 10% glycerol, 0.05% NP-40 alternative, 2 mM DTT, 4°C; 2-AP: 50 mM Tris pH 7.6, 50 mM NaCl, 10% glycerol, 4°C; FRET: EMSA buffer, 30°C; conditions: protein: recombinant;recombinant; tags: ;; label: 5'-32P; hairpin with 5' G-rich bulge and internal loop
T4 sequence 1: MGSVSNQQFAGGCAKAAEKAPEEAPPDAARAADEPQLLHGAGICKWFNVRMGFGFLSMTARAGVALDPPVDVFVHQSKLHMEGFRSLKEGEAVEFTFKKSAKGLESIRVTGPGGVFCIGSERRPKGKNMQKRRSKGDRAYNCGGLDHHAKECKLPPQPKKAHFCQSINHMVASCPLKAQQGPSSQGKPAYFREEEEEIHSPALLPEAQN
T4 sequence 2: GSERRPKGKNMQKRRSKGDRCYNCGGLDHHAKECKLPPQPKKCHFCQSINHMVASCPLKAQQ

[13] = target: T1, Lin28 (Lin28A); test: 2-AP fluorescence; 500 nM RNA; second Lin28; EMSA: 50 mM Tris pH 7.6, 50 mM NaCl, 10% glycerol, 0.05% NP-40 alternative, 2 mM DTT, 4°C; 2-AP: 50 mM Tris pH 7.6, 50 mM NaCl, 10% glycerol, 4°C; FRET: EMSA buffer, 30°C; conditions: protein: recombinant; label: 2-AP; hairpin
[14] = target: T1, Lin28 (Lin28A); test: EMSA; Hill n = 1.46 ± 0.01; EMSA: 50 mM Tris pH 7.6, 50 mM NaCl, 10% glycerol, 0.05% NP-40 alternative, 2 mM DTT, 4°C; 2-AP: 50 mM Tris pH 7.6, 50 mM NaCl, 10% glycerol, 4°C; FRET: EMSA buffer, 30°C; conditions: protein: recombinant; label: 5'-32P; hairpin
[15] = target: T3, Lin28 C139A/C161A; test: EMSA (stoichiometric); 0.5 µM RNA; EMSA: 50 mM Tris pH 7.6, 50 mM NaCl, 10% glycerol, 0.05% NP-40 alternative, 2 mM DTT, 4°C; 2-AP: 50 mM Tris pH 7.6, 50 mM NaCl, 10% glycerol, 4°C; FRET: EMSA buffer, 30°C; conditions: protein: recombinant; label: 5'-32P; hairpin
[16] = hairpin with 5' G-rich bulge and internal loop

**Q.** With GCAGAUUGAGGGUCUUGUACCACCCGGUACAAGAUAUCUGCA (structured_RNA) [TL-let-7g Δiloop] as the binder, how does the Kd [1] read?
**A.** Its Kd is 0.52 ± 0.09 nM.

**Q.** With GGUACACCACAUAU (ssRNA) [TL28-41V] as the binder, how does the Kd [2] read?
**A.** The Kd was roughly 43.3 nM.

**Q.** Does GCAGAUUUAGGGUCACACCCACCACUGGGAGAUAUCUGCA (structured_RNA) [TL-let-7a-1] bind ([3]; hairpin)?
**A.** Result: binds

**Q.** Does GCAGAUUUAGGGUCACACCCACCACUGGGAGAUAUCUGCA (structured_RNA) [TL-let-7a-1] bind ([4]; hairpin)?
**A.** Result: binds

B1: duplexbulge (dsRNA)
RNA 1: CGUACAGAUUGAGGGUGACAUCG
RNA 2: CGAUGUCAUAUCUGUACG
**Q.** How did the “apparent K (half saturation)” value [5] turn out when B1 was run?
**A.** Its value is 354 nM.

**Q.** And the “apparent K (half saturation)” value [6]?
**A.** The value was 58 nM.

**Q.** And the “apparent K (half saturation)” value [7]?
**A.** Its value is 99 nM.

**Q.** With GCAGAUGUCUAUGAUACCACCCGGUACAGGAGAUAUCUGCA (structured_RNA) [TL-let-7g Δbulge] as the binder, how does the Kd [8] read?
**A.** Its Kd is 0.9 ± 0.2 nM.

**Q.** With GCGACUGUUGAAUCUCAUGGCGCA (structured_RNA) [TL-miR-21a] as the binder, how does the Kd [9] read?
**A.** Its Kd is 13 nM.

**Q.** With AUUGAGGGUCUAUA (ssRNA) [TL5-18] as the binder, how does the Kd [2] read?
**A.** Its Kd is 1.7 ± 0.4 nM.

**Q.** Does AUUGAGGGUCUAUA (ssRNA) [TL5-18] bind [10]?
**A.** Result: no binding

**Q.** What does the source list for GGUACAGGAGAUAU (ssRNA) [TL28-41]?
**A.** Kd [2]: 0.29 ± 0.08 nM; binding result [10]: no binding

**Q.** For GCAGAUUGAGGGUCUAUGAUACCACCCGGUACAGGAGAUAUCUGCA (structured_RNA, 2-aminopurine at A9) [TL-let-7g 2-AP9], which “apparent K (half saturation)” value [11] is on record?
**A.** The value was roughly 548 nM.

**Q.** Which “apparent K (half saturation)” value [11] does the source give for GCAGAUUGAGGGUCUAUGAUACCACCCGGUACAGGAGAUAUCUGCA (structured_RNA, 2-aminopurine at A36) [TL-let-7g 2-AP36] here?
**A.** Its value is roughly 548 nM.

**Q.** Does GCAGAUUGAGGGUCUAUGAUACCACCCGGUACAGGAGAUAUCUGCA (structured_RNA) [TL-let-7g] bind [3, 16]?
**A.** Result: binds

**Q.** Does GCAGAUUGAGGGUCUAUGAUACCACCCGGUACAGGAGAUAUCUGCA (structured_RNA) [TL-let-7g] bind [4, 16]?
**A.** Result: binds

**Q.** Does GCAGAUUGAGGGUCUAUGAUACCACCCGGUACAGGAGAUAUCUGCA (structured_RNA) [TL-let-7g] bind [12]?
**A.** Result: binds

**Q.** For GCAGAUUGAGGGUCUAUGAUACCACCCGGUACAGGAGAUAUCUGCA (structured_RNA, 2-aminopurine at A21) [TL-let-7g 2-AP21], which “apparent K (half saturation)” value [11] is on record?
**A.** The value was 500 nM.

**Q.** How did the “apparent K (half saturation)” value [13] turn out when GCAGAUUGAGGGUCUAUGAUACCACCCGGUACAGGAGAUAUCUGCA (structured_RNA, 2-aminopurine at A31) [TL-let-7g 2-AP31] was run?
**A.** Its value is 1300 nM.

**Q.** Which Kd [14] does the source give for GCAGAUUGAGGGUCUAUGAUACCGCAAGGUACAGGAGAUAUCUGCA (structured_RNA) [TL-let-7g GNRA loop] here?
**A.** The Kd was 0.4 ± 0.2 nM.

**Q.** UCUAUGAUACCACC (ssRNA) [TL13-26] was tested. Which Kd [2] did it give?
**A.** The Kd was roughly 43.3 nM.

**Q.** Does AUACCACCCGGUAC (ssRNA) [TL19-32] bind [2]?
**A.** Result: no binding

**Q.** Does UCUAUCAAACCACC (ssRNA) [TL13-26V] bind [2]?
**A.** Result: no binding

**Q.** Does GCAGAUUUAGGGCAGAGAUUUUGCCCACAAGGAGUUAUCUGCA (structured_RNA) [TL-let-7d] bind [15]?
**A.** Result: binds

**Q.** Does GCAGAUUUAGGGCAGAGAUUUUGCCCACAAGGAGUUAUCUGCA (structured_RNA) [TL-let-7d] bind ([3]; hairpin)?
**A.** Result: binds

**Q.** Does GCAGAUUUAGGGCAGAGAUUUUGCCCACAAGGAGUUAUCUGCA (structured_RNA) [TL-let-7d] bind ([4]; hairpin)?
**A.** Result: binds

**Q.** Which Kd [2] does the source give for AGGAGAUAUCUGCA (ssRNA) [TL33-46] here?
**A.** Its Kd is 0.5 ± 0.1 nM.

**Q.** Does AGGAGAUAUCUGCA (ssRNA) [TL33-46] bind [10]?
**A.** Result: no binding

**Q.** Which Kd [9] does the source give for GCCGCGGGGCCUUCGCCGCACACGGCA (structured_RNA) [TL-miR-99b] here?
**A.** The Kd was 15 nM.

From article PMC3985620, “Stepwise assembly of multiple Lin28 proteins on the terminal loop of let-7 miRNA precursors”
